Results published in patent US20250018005A1.

How the values were obtained:
[1] = molecular target: gp120, a protein in the HIV envelope (HIV); assay: competition ELISA, Q-GRFT binding to gp120 in the presence of α-mannan at 0.005 (printed g/mL; the legend of FIG. 3 prints µg/mL)
[2] = molecular target: gp120, a protein in the HIV envelope (HIV); assay: competition ELISA, Q-GRFT binding to gp120, PBS control (no α-mannan)

“Q-Griffithsin (Q-GRFT), recombinant oxidation-resistant variant of griffithsin (M78Q) (from UniProt P84801 1-121)” gave an EC50 [1] of 79.3 µg/mL and an EC50 [2] of 72.5 µg/mL.
